The nature of this series: In vitro functional identification of C-glycosyltransferases by HPLC, phloretin as glycosyl receptor. The class given is biochemical. The settings on record: 0.1 mM phloretin, 0.3 mM UDP glucose, crude enzyme, 37° C., 2 h, HPLC (FIG. 1A). As for the experimental part:
The recombinant plasmid was transformed into competent cells of Escherichia coli BL21 (DE3), and cultured overnight at 37° C. in solid LB medium (kanamycin 50 μg/mL). Single colony was transferred to a 2 mL LB liquid medium (containing 50 μg/ml kanamycin) and incubated overnight. The bacterial fluid was transferred to a new 100 ml LB liquid medium with antibiotics and incubated at 37° C. and 250 r/min until OD600 reached 0.5-0.6. The culture was cooled down to 16° C. in a water bath. Then inducer IPTG was added at a final concentration of 0.1 mM. The mixture was cultured at 16° C. for low temperature induction and 180 r/min for 20 h. The BL21(DE3) recombinant strain carrying the pET28a empty plasmid was used as a blank control, and the culture operation was the same as above. The bacteria were harvested by centrifugation (6000 r/min, 5 min), re-suspended in 1 mL of lysis buffer Buffer A (20 mM Tris-HCl, pH 8.0; 100 mM NaCl), and DNase was added to a final concentration of 5 μg/mL, Mg^2+ to a final concentration of 2 mM; protease inhibitor PMSF to a final concentration of 1 mM; the bacteria were incubated on ice for 30 min and then sonicated; refrigerated centrifugation (10,000 rpm, 30 min, 4° C.), filtered through a 0.2 µm filter membrane to obtain the supernatant crude enzyme solution, and added 20% glycerol for cryopreservation (−20° C.).
The in vitro enzyme catalytic assay system is 100 μL. The reaction system includes: 0.1 mM glycosyl receptor (phloretin or 2-hydroxynaringenin), 0.3 mM UDP glucose, 25 μL supernatant crude enzyme solution, and Buffer A is used to make up the volume to 100 μL, and react at 37° C. for 2 h. After the reaction was completed, an equal volume of methanol was added to terminate the reaction, and HPLC was used for product analysis. HPLC detection conditions: chromatographic column: reverse phase C18 column [SilGreen ODS column (ø 4.6×250 mm)], detection wavelength 280 nm; mobile phase: acetonitrile (0.1% formic acid)-water (0.1% formic acid) mixture gradient elution, with increased ratio from 5:95 to 100:0 within 0 to 20 min, and the flow rate was 1 mL/min.

Consider three molecules from patent US20230066984A1, “New Carbon Glycoside Glycosyltransferase and Use Thereof” (CAS Center for Excellence in Molecular Plant Sciences, priority 2020, published 2023).

B1: TaCGT2-B: C-glycosyltransferase from wheat, SEQ ID NO: 12 (protein, listed as Triticum aestivum)
chain: MASSPRDDRAGAAAPRPRIVLLPSASMGHLAPFSRLAAALSSGHACDVSLVTVLPTVSSAESGQLDALFAAFPAVRRLDFQLPPLDAPELSGADPFYVHYEATRRSARLLAPLLAAADASVLVADISLASVLIPVASELRLPCYVFFTASATMFSFYAYYPTYLDAAGAGDADVPGVYRIPKSSFPQALHDRNNLFTQQFVANGRSLSKADGLLINTFDALEPEAVTALRQGSVVPGCPPVFTVGPLSPVSFPARASADYSACLDAQPERSVVYVSFGSRKALARDQLSELADGLEASGCRFLWVVKGAVVDKDDGAELSELLGEGFLQRVSGRALVTKAWVEQGEVLKHPAIGMFVSHCGWDSLTEAFATGVPVLAWPRFADQRVNAGIVARCGAGVWVERWSWEGDEGVVKGEEIAEKVKSVMANEMLRRSSTMVREAAMTAVAGGGTSYRSLAELVARCCDGSASQ
Turning to B1, the “conversion of substrate phloretin to C-glycosylated product (Nothofagin)” value (shortened to “conversion of substrate phloretin”) is recorded as “can convert the substrate phloretin to a product having a shorter retention time”.

B2: TaCGT1-D: C-glycosyltransferase from wheat, SEQ ID NO: 10 (protein, listed as Triticum aestivum)
chain: MPTSGDASGALPHPHVVLLPSAGMGHLVPFSRLAVSLSSPGHGCGVSVATVLPTVSSAESAHLDALFGACPAVRRLDFHLAPFDASEFPGADPFFLRFEAMRRSAPLLGPLLAGAGASALVTDIALASVVIPVARDLRLPCYVLFTASAAMLSLCVHFPAYLDANAGGPVGDVGIPGVYRVPKASIPQALHHPEHLFTQQFVANGRELAKADGLLVNSFDAFEPEAIAALRNGSVAAGFPPVFSVGPLAPVSFSASEPPENQADYMRWLEAQPARSVVYVSFGSRKAISKDQLRELAVGLEASGHRFLWVVKSTVVDRDDEAELSELLGEGFLERVQGRGMVTKGWVEQEEVLKQESIGLFISHCGWNSVTEAAANGLPVLAWPRFGDQRVNAGVVARSGLGVWEERWSWEGEEGTVSGHNIAEKVKTVMADKTVRNKAVSVQDAAAEAVADGGTSYRSLAQFVQRCRDLSVSK
B2: the “5′ C-glycosylation of 3′-glycosylated phloretin giving phloretin-3′,5′-C-diglucoside” value is “can catalyze the glycosylation of the 3′-glycosylated phloretin at the 5′ position” and the “conversion of substrate phloretin” value is “can convert the substrate phloretin to a product having a shorter retention time”.

B3: TaCGT2-A: C-glycosyltransferase from wheat, SEQ ID NO: 11 (protein, listed as Triticum aestivum)
chain: MASSSRDDRAGAAAPRPRIVLLPSAGMGHLAPFSRLAAALSSGHACDVSLVTVLPTVSSAESGQLDALFAAFPAVRRLDFHLPPLDAPELSGADPFYVHYEATRRSARLLAPLLAAADASALIADISLASVLIPVASELRLPCYVFFTASATMFSFYAYYPTYLDATGAGDADVPGVYRIPKSSFPQALHDRNNLFTQQFVANGRSLSKADGLLINTFDDLEPEAVTALRQGSVVPGFPPVFTVGPLSPVSFPARASSDYSAWLDAQPERSVVYVSFGSRKALARDQLSELADGLEASGCRFLWVVKGAVVDKDDGAELSELLGEGFLQRVSGRALVTKAWVEQGEVLKHPAIGMFVSHCGWNSLTEAFATGVPVLAWPRFADQRVNAGIVARCGAGVWVERWSWEGDDGVVKGEEIAEKVKSVMADEMLRRSSTVVREAATTAVAGGGTSYRSLAELVARCCHGSALQ
Take B3: the “conversion of substrate phloretin” value was “can convert the substrate phloretin to a product having a shorter retention time”.
